Assays:
[1] = target: T1, human CD123 SP1 ECD displayed on pDisplay-transfected cells (human, UniProt P26951 20-305); assay: MSD-CAT, hCD123 cells, assay-1; apparent KD (bivalent)
T1 construct: ECD anchored on the surface of stably transfected HEK293 cells by the PDGFR transmembrane domain; also called hCD123 SP1 cells; hCD123 cells
T1 sequence: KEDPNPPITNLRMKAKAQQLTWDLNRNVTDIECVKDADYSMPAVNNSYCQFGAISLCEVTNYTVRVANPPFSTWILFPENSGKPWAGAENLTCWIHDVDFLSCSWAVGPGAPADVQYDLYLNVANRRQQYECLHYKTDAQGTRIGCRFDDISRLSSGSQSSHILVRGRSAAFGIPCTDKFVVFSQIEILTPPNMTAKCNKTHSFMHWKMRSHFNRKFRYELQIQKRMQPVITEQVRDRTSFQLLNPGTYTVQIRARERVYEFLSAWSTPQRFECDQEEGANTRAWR

[2] = target: T1, human CD123 SP1 ECD displayed on …; assay: MSD-CAT on pDisplay cells
Protocol: (§1) The MSD-CAT was developed in-house as a label-free method to determine affinity using intact cells in a high throughput format. […] Cell lines used were human pDisplay CD123SP1 and pDisplay CD123SP2. […] These samples were prepared in DMEM Glutamax medium containing 0.05% Azide, 1% BSA, 3 mM EDTA. […] After equilibration the plate was centrifuged for 5 minutes ˜1000 rpm and free anti-CD3 detected on the supernatant. […] The assay buffer was removed without washing and 50 uL/well of 0.7 ug/mL of biotinylated antigen in assay buffer were added to MSD plates and incubated overnight (˜16 hours at 4° C.).

[3] = target: T2, human CD123 SP2 ECD displayed on pDisplay-transfected cells (human, UniProt P26951 101-305); assay: MSD-CAT on pDisplay cells
T2 construct: ECD anchored on the surface of stably transfected HEK293 cells; also called hCD123 SP2 cells; pDisplay CD123SP2
T2 sequence: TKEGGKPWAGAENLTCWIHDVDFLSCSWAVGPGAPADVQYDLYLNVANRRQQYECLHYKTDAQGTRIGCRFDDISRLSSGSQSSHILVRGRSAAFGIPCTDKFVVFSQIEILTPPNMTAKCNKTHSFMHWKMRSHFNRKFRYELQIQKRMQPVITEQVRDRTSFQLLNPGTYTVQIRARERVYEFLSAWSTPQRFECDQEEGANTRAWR
Protocol: as §1

[4] = target: T3, Recombinant human CD123 SP2 ECD protein (human, UniProt P26951 101-303); assay: SPR ProteOn, captured mAb
T3 construct: also called rhCD123 SP2; CD123 ECD SP2
T3 sequence: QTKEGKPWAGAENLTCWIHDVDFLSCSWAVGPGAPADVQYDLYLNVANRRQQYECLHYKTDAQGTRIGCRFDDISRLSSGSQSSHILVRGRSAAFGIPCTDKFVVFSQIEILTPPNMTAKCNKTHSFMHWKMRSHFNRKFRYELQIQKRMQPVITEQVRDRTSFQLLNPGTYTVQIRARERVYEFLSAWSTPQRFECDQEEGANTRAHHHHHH

[5] = target: T4, Recombinant human CD123 SP1 ECD-His tag protein (human, UniProt P26951 20-305); assay: SPR ProteOn, captured mAb
T4 construct: bought from R&D Systems (#301-R3/CF); biotinylated for some assays; also called rhCD123 SP1; huCD123 ECD SP1
T4 sequence: T1 sequence

[6] = target: T5, cyno CD123 ECD displayed on pDisplay-transfected cells (cynomolgus monkey); assay: MSD-CAT, cynoCD123 cells, assay-2; apparent KD (bivalent)
T5 construct: ECD anchored on the surface of stably transfected HEK293 cells; also called cynoCD123 SP1 cells; cynoCD123 cells
T5 chain: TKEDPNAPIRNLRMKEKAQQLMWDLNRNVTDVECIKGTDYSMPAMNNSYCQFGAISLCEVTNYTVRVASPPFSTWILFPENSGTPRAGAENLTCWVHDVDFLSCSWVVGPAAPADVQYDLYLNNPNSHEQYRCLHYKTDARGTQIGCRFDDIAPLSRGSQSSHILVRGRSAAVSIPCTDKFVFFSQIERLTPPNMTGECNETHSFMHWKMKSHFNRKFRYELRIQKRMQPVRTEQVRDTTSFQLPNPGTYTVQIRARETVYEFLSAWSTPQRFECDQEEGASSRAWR

B1: I3RB18 (antibody, IgG1, V domains shown)
VH: EVQLVQSGAEVKKPGESLKISCKGSGYSFTSYWISWVRQMPGKGLEWMGIIDPSDSDTRYSPSFQGQVTISADKSISTAYLQWSSLKASDTAMYYCARGDGSTDLDYWGQGTLVTVSS
VL: EIVLTQSPGTLSLSPGERATLSCRASQSVSSSYLAWYQQKPGQAPRLLIYGASSRATGIPDRFSGSGSGTDFTLTISRLEPEDFAVYYCQQDYGFPWTFGQGTKVEIK
notes: IgG1; also called 13RB18; mAb I3RB18
In the case of B1, the Kd [1] is reported as 0.055 nM, the Kd [2] is reported as 0.047 nM and the Kd [3] is reported as 0.049 nM. For the same binder, the Kd [4] was 0.363 nM, the koff [4] was 0.000978 s⁻¹ and the kon [4] was 2.69e+06 M⁻¹ s⁻¹. It also gave a Kd [5] of 0.57 nM, a koff [5] of 0.00082 s⁻¹ and a kon [5] of 1.44e+06 M⁻¹ s⁻¹. The Kd [6] was greater than 11.9 nM.

Reference: US20160068605A1 (Janssen / Centocor, published 2016)
